The results in this text go back to patent publication US20220119490A1 (Genentech, published 2022).

Experiment [1] concerns the target T1, PTPRD E406K variant extracellular domain (human, UniProt P23468 21-1265).
T1 construct: extracellular domain; also called FN1 mutant
T1 sequence (looked up): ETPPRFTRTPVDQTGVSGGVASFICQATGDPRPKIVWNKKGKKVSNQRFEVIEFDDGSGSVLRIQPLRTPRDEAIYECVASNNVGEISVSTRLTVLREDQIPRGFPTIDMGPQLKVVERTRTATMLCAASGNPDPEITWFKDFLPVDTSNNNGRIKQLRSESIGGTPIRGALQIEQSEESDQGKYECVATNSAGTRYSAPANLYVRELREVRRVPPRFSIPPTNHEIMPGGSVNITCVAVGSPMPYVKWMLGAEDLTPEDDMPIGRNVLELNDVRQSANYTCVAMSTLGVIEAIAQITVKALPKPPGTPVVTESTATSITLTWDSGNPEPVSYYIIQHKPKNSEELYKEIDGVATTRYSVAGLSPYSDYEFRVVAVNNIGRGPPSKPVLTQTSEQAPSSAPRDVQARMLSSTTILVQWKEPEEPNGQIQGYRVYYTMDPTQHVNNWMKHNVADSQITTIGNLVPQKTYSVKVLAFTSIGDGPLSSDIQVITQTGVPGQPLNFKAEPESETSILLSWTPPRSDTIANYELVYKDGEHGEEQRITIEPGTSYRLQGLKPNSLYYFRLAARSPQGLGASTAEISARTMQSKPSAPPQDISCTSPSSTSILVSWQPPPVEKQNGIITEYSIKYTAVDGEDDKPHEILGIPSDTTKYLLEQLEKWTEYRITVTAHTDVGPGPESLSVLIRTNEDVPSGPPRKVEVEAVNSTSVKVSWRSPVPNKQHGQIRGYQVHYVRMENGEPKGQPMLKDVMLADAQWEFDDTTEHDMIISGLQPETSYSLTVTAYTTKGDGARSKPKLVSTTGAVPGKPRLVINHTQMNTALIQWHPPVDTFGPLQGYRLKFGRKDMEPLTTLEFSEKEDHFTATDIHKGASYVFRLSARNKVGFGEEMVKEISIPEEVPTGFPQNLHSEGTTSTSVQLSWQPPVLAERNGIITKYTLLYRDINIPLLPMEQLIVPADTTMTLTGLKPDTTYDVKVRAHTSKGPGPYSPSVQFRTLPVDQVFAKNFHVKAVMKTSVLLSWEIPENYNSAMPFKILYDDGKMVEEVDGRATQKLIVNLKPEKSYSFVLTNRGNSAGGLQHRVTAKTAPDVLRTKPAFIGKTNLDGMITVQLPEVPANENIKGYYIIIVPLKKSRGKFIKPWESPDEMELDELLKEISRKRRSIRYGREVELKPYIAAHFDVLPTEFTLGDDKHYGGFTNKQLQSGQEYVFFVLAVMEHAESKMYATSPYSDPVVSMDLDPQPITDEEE
The experiment is described as follows: extracellular interaction screen: pentameric PTPRD variant ECD on ECD-Fc prey (FIG. 5L).

For experiment [2], the target named is T2, PTPRD R561Q variant extracellular domain (human, UniProt P23468 21-1265).
T2 construct: extracellular domain; also called FN3 mutant
T2 sequence (looked up): T1 sequence (looked up) with K386E, R541Q
The description is as above.

Substitutions are numbered along the chain they refer to.

B1: LRRC4B extracellular domain (receptor, human, UniProt Q9NT99 36-576, looked up)
chain: AGGGGVAVTSAAGGGSPPATSCPVACSCSNQASRVICTRRDLAEVPASIPVNTRYLNLQENGIQVIRTDTFKHLRHLEILQLSKNLVRKIEVGAFNGLPSLNTLELFDNRLTTVPTQAFEYLSKLRELWLRNNPIESIPSYAFNRVPSLRRLDLGELKRLEYISEAAFEGLVNLRYLNLGMCNLKDIPNLTALVRLEELELSGNRLDLIRPGSFQGLTSLRKLWLMHAQVATIERNAFDDLKSLEELNLSHNNLMSLPHDLFTPLHRLERVHLNHNPWHCNCDVLWLSWWLKETVPSNTTCCARCHAPAGLKGRYIGELDQSHFTCYAPVIVEPPTDLNVTEGMAAELKCRTGTSMTSVNWLTPNGTLMTHGSYRVRISVLHDGTLNFTNVTVQDTGQYTCMVTNSAGNTTASATLNVSAVDPVAAGGTGSGGGGPGGSGGVGGGSGGYTYFTTVTVETLETQPGEEALQPRGTEKEPPGPTTDGVWGGGRPGDAAGPASSSTTAPAPRSSRPTEKAFTVPITDVTENALKDLDDVMKTTK
notes: extracellular domain; ECD-Fc prey; also called NGL-3; netrin-G ligand-3
Regarding B1, the binding result in experiment [1] and in experiment [2] was “no binding” throughout.
